Laboratory results published in US12606635B2, “Glypican-2-binding moieties, chimeric antigen receptors and uses thereof” (Nanjing Legend Biotech Co., Ltd., priority 2020, dated 2026).

Experiments:
[1] = target: T1, recombinant human GPC2-His protein (Homo sapiens, UniProt Q8N158); assay: SPR (Biacore T200) affinity of anti-GPC2 VHH-hIgG1Fc; settings: 1:1 binding model
T1 construct: His
T1 sequence (Q8N158 24-554): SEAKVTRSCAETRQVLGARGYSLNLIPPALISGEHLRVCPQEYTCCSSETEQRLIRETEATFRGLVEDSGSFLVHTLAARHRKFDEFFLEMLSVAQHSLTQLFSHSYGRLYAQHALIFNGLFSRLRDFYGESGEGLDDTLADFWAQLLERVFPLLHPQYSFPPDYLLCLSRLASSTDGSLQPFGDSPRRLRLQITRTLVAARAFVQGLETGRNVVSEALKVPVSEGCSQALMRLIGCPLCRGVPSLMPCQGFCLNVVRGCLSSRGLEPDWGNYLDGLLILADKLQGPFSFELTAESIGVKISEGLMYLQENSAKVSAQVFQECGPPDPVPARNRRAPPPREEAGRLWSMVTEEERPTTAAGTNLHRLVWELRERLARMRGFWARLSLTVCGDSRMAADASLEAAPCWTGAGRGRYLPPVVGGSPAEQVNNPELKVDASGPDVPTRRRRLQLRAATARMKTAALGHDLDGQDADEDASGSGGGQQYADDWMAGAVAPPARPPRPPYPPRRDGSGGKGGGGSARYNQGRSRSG
Protocol: Each of the exemplary anti-GPC2 VHH sequences was cloned into a vector comprising a human IgG1Fc fragment (hlgG1Fc) sequence to facilitate recombinant expression of anti-GPC2 VHH-hlgG1Fc. Recombinant proteins were obtained and purified for SPR assays. The affinity of each anti-GPC2 VHH-hIgG1Fc for GPC2 was determined by SPR using a BIACORE® T200 analytical system (GE Healthcare). Briefly, recombinant human GPC2-His protein was covalently coupled to a CM5(s) sensor chip using an amine coupling kit. Exemplary VHH-hIgG1Fc proteins were serially diluted in running buffer (10 mM HEPES, 150 mM NaCl, 3 mM EDTA, 0.05% Tween-20, pH 7.4) and injected over the chip cell at a flowrate of 100 μL/min for 100 seconds followed by buffer-only injection for 300 seconds to allow for antibody dissociation. The dissociation […] (KD) were determined using the BIACORE® T200 evaluation software version 3.0 (Langmuir binding, local fit, 1:1 binding model).

[2] = target: T2, recombinant human GPC2 protein (Homo sapiens, UniProt Q8N158); assay: ELISA-based specific binding assay, human GPC2; settings: FIG. 3A-3G
T2 construct: His; purchased RD System (R&D Systems) 2304-GP
T2 sequence (Q8N158 24-554): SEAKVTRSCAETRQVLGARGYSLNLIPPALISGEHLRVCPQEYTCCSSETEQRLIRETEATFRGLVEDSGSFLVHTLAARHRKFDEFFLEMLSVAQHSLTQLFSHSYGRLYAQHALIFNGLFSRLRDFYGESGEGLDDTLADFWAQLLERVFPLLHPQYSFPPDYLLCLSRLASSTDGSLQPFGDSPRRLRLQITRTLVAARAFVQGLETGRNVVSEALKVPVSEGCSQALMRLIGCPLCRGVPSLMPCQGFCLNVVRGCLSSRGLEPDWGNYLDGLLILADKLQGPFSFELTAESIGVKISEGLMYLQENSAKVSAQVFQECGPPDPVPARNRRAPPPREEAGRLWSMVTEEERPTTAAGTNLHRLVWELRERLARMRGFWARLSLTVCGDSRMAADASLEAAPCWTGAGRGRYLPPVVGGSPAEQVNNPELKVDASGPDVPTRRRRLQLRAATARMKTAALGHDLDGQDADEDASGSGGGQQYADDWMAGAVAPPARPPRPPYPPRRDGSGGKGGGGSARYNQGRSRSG
Protocol: To evaluate the specificity of humanized anti-GPC2 VHH5 to recombinant human GPC2 protein, an ELISA-based binding assay was conducted to determine the differential target proteins binding of anti-GPC2 VHH5. Briefly, microplates were coated with 2 μg/mL recombinant human GPC1-His (RD System, Cat #4519-GP), GPC2-His (RD System, Cat #2304-GP), GPC3-His (ACRO, Cat #GP3-H5223), GPC4-Fc (RD System, Cat #9195-GP), GPC5-His (RD System, Cat #2607-G5/CF), GPC6-His (RD System, Cat #2845-GP) or recombinant mouse GPC2-His (RD System, Cat #2355-GP) proteins. Recombinant human protein coated plates were blocked with skim milk. Serially diluted humanized VHH-hIgG1Fc recombinant antibodies were added to each well of the plates and incubated at 4° C. for 1.5 h. Samples were further labelled with HRP-conjugated goat anti human IgG (H+L) secondary antibody (Genescript, Cat #A00166-1) and signal was developed with 3,3′,5,5′-Tetramethylbenzidine (TMB) substrate according to manufacturer's instruction. For the GPC4, VHH-His recombinant antibodies and anti-His tag secondary antibody (Genescript, Cat #A00612) were added to the GPC4-Fc coated plates instead. Optic density at 450 nm was measured by plate reader.

[3] = test system: cynomolgus monkey GPC2 expressing cell HEK293T/cynoGPC2; assay: Flow cytometry binding of VHH-His proteins to HEK293T/cynoGPC2; settings: FIG. 4A-4C
From the text: (§1) Recombinant anti-GPC2 VHH-His proteins were constructed by fusing the anti-GPC2 VHH sequence to a mouse Ig heavy chain signal peptide sequence (N′-MGWSWILLFLLSVTAGVHS-C; SEQ ID NO: 179) at the N terminus, and a 6×His-tag (N′-HHHHHH-C; SEQ ID NO: 180) at the C terminus. The codons were further optimized for optimal expression in mammalian engineered immune effector cells. The obtained nucleotide sequences were then cloned into a mammalian expression vector pCDNA3.4 to provide expression plasmids.
(§2) Binding affinities of humanized VHH proteins AS70950VH6, AS71529VH6, AS72669VH6 and AS71529VH6-AS70950VH6 anti-GPC2 VHH-HIS proteins to human GPC2 expressing cells (SH-SY5Y and HEK293T/hGPC2) and cynomolgus monkey GPC2 expressing cell (HEK293T/cynoGPC2) were determined using flow cytometry. Briefly, serially diluted anti-GPC2 VHH-HIS proteins were incubated with 2×10^5 target cells at 4° C. for 30 mins. After washing, cells were further labelled with THE™ His tag Antibody (iFluor 647) (Genescript, #A01802) at 4° C. for 30 mins. Fluorescence intensity was measured by flow cytometry. A four parameters variable slope curve was fitted to each group using GraphPad Prism for Windows Version 6.02.

[4] = target: T3, human GPC2 expressing cells HEK293T/hGPC2 (Homo sapiens, UniProt Q8N158); assay: Flow cytometry binding of VHH-His proteins to HEK293T/hGPC2; settings: FIG. 4A-4C
T3 construct: expressed in transfected cells; host or cells: HEK293T (ATCC, #CRL-1573), plvx-EF1α-puro plasmid
T3 sequence (Q8N158 24-554): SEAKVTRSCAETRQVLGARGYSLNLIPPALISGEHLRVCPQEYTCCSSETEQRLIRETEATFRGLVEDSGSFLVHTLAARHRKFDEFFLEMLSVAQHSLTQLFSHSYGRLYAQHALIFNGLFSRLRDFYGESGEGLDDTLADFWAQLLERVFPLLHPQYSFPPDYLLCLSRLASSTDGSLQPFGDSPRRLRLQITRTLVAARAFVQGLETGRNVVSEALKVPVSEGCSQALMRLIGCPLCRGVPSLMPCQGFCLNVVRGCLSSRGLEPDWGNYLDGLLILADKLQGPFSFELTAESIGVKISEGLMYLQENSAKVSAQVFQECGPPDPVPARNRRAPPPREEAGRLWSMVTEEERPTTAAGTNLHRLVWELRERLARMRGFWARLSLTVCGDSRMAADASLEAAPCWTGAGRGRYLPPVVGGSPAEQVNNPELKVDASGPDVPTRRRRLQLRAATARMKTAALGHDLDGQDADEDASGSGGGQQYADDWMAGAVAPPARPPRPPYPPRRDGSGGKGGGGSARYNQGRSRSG
From the text: as §1, §2

[5] = target: T4, human GPC2 expressing cells SH-SY5Y (Homo sapiens, UniProt Q8N158); assay: Flow cytometry binding of VHH-His proteins to SH-SY5Y; settings: FIG. 4A-4C
T4 construct: host or cells: SH-SY5Y
T4 sequence (Q8N158 24-554): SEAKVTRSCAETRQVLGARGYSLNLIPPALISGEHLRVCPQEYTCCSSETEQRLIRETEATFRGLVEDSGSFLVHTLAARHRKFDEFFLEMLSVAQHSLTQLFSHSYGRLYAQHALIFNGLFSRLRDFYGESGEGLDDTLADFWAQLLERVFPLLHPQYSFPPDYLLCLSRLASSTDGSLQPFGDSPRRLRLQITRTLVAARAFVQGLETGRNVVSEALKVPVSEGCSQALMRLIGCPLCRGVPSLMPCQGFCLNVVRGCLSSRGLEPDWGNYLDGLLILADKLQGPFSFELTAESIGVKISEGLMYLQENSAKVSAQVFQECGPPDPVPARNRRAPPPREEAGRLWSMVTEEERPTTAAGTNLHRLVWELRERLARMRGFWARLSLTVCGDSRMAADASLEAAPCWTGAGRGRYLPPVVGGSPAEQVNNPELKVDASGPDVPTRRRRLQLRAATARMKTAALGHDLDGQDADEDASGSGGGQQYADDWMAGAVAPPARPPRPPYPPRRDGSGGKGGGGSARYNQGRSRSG
From the text: as §1, §2

B1: AS71529VH6-hIgG1Fc: AS71529VH6 VHH fused to human IgG1Fc fragment (protein)
chain: EVQLVESGGGLVQPGGSLRLSCAVSEYRYSSRYCMGWFRQAPGKGREGVAAIDSNGSADYVDSVKGRFTISKDNSKNTLYLQMNSLRAEDTAMYYCAADHLAYDCYSGATSVFRYWGQGTLVTVSS
modifications: left off: a dimerising Fc or GST
notes: AS71529VH6 VHH fused to human IgG1Fc fragment
ka [1]: 850000 M⁻¹ s⁻¹ | kd [1]: 0.0044 s⁻¹ | binding to recombinant human GPC2 protein [2]: high affinity

B2: AS70950VH6: humanized anti-GPC2 VHH, SEQ ID NO: 124; tested as VHH-HIS protein (protein)
VHH: EVQLVESGGGLVQPGGSLRLSCAISEFTYKNTCVGWFRQAPGKGREGVAAIDSDGNTNYVDSVKGRFTISQDNSKNTVYLQMNSLRAEDTAMYYCAAGAYCGRLLLWIGNYAYWGQGTLVTVSS
modifications: His tag; AS70950VH6
notes: tested as VHH-HIS protein
binding to HEK293T/cynoGPC2 [3]: specifically bind | binding to HEK293T/hGPC2 [4]: specifically bind | binding to SH-SY5Y [5]: specifically bind

B3: AS71529VH6: humanized anti-GPC2 VHH, SEQ ID NO: 127; tested as VHH-HIS protein (protein)
VHH: EVQLVESGGGLVQPGGSLRLSCAVSEYRYSSRYCMGWFRQAPGKGREGVAAIDSNGSADYVDSVKGRFTISKDNSKNTLYLQMNSLRAEDTAMYYCAADHLAYDCYSGATSVFRYWGQGTLVTVSS
modifications: His tag; AS71529VH6
notes: tested as VHH-HIS protein
binding to HEK293T/cynoGPC2 [3]: specifically bind | binding to HEK293T/hGPC2 [4]: specifically bind | binding to SH-SY5Y [5]: specifically bind
